doi:10.1101/2020.01.15.908418
Like-named read-outs stand apart in the source and are kept apart here.

Experiments:
[1] = molecular target: tropomyosin of murine cardiac thin filaments (mouse (endogenous in murine ventricular myocardium)) (UniProt P58771); assay: cryo-EM structure
[2] = molecular target: tropomyosin of murine cardiac thin filaments (mouse (endogenous in murine ventricular myocardium)) (UniProt P58771); assay: cryo-EM structure; remark: listed apart in the source

Work on “tropomyosin of murine cardiac thin filaments (from UniProt P58771 1-284) (natural protein)” yielded a stoichiometry N [1] of 2 and a stoichiometry N [2] of 2.
